T1: cynomolgus monkey CD19 on peripheral blood B cells (cynomolgus monkey (Macaca fascicularis), UniProt A0A2K5W8L9 20-557)
T1 construct: whole, on cells; also called cynomolgus monkey B cells
T1 sequence: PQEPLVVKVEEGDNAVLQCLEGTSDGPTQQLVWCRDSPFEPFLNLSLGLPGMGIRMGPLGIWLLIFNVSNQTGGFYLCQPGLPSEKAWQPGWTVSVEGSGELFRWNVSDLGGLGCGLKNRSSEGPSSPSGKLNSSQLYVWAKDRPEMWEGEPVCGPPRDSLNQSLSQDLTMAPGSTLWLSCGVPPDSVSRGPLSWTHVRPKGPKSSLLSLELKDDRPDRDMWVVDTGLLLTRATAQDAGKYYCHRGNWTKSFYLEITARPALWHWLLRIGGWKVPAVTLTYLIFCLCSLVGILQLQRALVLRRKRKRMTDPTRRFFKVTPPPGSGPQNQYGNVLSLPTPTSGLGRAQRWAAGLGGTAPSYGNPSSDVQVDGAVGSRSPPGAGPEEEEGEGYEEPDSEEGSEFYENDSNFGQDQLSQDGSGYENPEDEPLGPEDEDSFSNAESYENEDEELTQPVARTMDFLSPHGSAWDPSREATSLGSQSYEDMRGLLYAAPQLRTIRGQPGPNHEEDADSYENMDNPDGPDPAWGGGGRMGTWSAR

T2: human CD19 on CHO-K1-human CD19 cells (human, UniProt P15391 20-556)
T2 construct: whole, on cells; also called CHO-K1-human CD19-2C8
T2 sequence (looked up): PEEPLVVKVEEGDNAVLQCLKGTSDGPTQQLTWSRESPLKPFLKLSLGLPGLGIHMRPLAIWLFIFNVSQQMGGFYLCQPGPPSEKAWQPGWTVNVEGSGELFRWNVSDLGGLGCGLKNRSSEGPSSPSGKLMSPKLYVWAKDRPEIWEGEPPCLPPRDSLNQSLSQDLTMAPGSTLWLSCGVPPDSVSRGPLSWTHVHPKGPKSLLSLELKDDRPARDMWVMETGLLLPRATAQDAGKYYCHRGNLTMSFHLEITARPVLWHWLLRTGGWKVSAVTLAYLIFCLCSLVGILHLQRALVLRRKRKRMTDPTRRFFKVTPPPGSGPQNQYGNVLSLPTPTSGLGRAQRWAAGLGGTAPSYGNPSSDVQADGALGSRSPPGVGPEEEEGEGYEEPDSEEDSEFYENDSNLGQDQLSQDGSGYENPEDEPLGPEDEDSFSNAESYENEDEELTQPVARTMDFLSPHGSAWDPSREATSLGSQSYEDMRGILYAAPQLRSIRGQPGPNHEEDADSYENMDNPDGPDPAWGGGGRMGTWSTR

T3: human CD19 on Raji cells (human, UniProt P15391 20-556)
T3 construct: whole, on cells
T3 sequence (looked up): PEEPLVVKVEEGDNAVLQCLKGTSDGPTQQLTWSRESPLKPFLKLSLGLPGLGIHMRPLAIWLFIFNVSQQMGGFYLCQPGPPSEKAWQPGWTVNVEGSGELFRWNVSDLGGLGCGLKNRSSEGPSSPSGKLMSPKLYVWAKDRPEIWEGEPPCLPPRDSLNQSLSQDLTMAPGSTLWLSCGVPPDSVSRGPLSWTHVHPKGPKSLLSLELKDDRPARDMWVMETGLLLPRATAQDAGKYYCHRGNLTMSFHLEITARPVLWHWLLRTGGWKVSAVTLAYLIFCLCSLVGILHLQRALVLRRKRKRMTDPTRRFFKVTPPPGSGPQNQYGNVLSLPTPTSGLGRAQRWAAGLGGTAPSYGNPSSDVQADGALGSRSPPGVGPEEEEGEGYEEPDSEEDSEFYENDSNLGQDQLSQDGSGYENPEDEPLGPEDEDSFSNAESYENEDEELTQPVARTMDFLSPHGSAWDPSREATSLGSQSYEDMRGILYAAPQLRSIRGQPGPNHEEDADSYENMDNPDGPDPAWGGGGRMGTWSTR


Key:
[1] = target: T1, cynomolgus monkey CD19 on peripheral …; assay: FACS, cynomolgus PBMC, CD20+ B cells
Description: The monkey peripheral blood mononuclear cells were extracted from fresh cynomolgus monkey peripheral blood (purchased from Shanghai Medicilon Inc.) according to the instructions of Ficoll-Paque Plus (purchased from GE Healthcae, catalog number: 171440-02). After the cell suspension was centrifuged, the cells were resuspended in PBS containing 1% BSA, and then the cells were counted. […] The mixture was incubated for 1 h at room temperature. After washing the cells three times, APC-labeled secondary antibody anti-human IgG Fc (catalog number: 409306, purchased from Biolegend) was added. After incubation at room temperature in the dark for 30 minutes, the cells were washed 5 times, gently resuspended with PBS containing 1% BSA, and detected and analyzed by FACS (FACS Canto™, purchased from BD Company), in which CD20 was used as a marker of B cells to gate the CD20-positive B cell population, the proportion of the chimeric antibody-labeled positive cells was analyzed, and the proportion of the chimeric antibody positive cell population to B cell population was calculated after treatments with the chimeric antibodies at the concentrations of 100 nM, 10 nM and 1 nM, respectively.

[2] = target: T2, human CD19 on CHO-K1-human CD19 cells; assay: FACS on CHO-K1-human CD19 cells
Description: (§1) The desired cells were scale-up cultured in a T-75 cell culture flask to the logarithmic growth phase. For the adherent cell CHO-K1, the medium was aspirated, the cells were washed 2 times with a PBS buffer, and then digested with trypsin. After the digestion was terminated, the cells were washed 2 times with a PBS buffer; and for suspension cell Raji, the supernatant of the medium was discarded by directly centrifugation, and the cell pellet was washed 2 times with PBS. After counting the cells in the previous step, the cell pellet was resuspended with [PBS+2% (w/w) BSA] blocking solution to 2×10⁶ cells/ml, and added to a 96-well FACS reaction plate at 50 μl/well, and then the sample to be tested was added at 50 μl/well, and incubated on ice for 2 h. The obtained mixture was centrifuged and washed 3 times with a PBS buffer. […] The obtained mixture was centrifuged and washed 5 times with a PBS buffer, and FACS (FACS Canto™, purchased from BD Company) was used for detection and result analysis. Data analysis was performed by software (FlowJo) to obtain the mean fluorescence intensity (MFI) of the cells. And then software (GraphPad Prism8) was used for analysis, data fitting, and EC50 value calculation. […] The same method was used to detect the binding of the chimeric antibodies to endogenous CD19-negative cells, MoLT4 cells (purchased from ATCC, CRL-1582), and CHO-K1 cells.

[3] = target: T4, monkey CD19 on HEK293T-monkey CD19 cells (monkey); assay: FACS on HEK293T-monkey CD19 cells
T4 construct: whole, on cells
Description: as §1, with “After” for “The desired cells were scale-up cultured in a T-75 cell culture flask to the logarithmic growth phase. For the adherent cell CHO-K1, the medium was aspirated, the cells were washed 2 times with a PBS buffer, and then digested with trypsin. After”
HEK293T-monkey CD19 cells were subjected to FACS detection and data analysis according to the method in example 5.2. […] The same method was used to detect binding of the chimeric antibodies to HEK293T cells.

human CD19 on Raji cells = target: T3, human CD19 on Raji cells; assay: FACS on Raji cells
Description: as §1

Proportion of chimeric antibody positive cells to B cells (%) at 1 nM [1]	Proportion of chimeric antibody positive cells to B cells (%) at 10 nM [1]	Proportion of chimeric antibody positive cells to B cells (%) at 100 nM [1]	EC50 [2]	Maximum mean fluorescence intensity [2]	EC50 [3]	Maximum mean fluorescence intensity [3]	EC50 (human CD19 on Raji cells)	Maximum mean fluorescence intensity (human CD19 on Raji cells)	Binder
38%	91%	99%	1.9 nM	48300	2.08 nM	173000	2.9 nM	29700	F3.3.10 (antibody, human IgG1, V domains shown, human-murine chimeric antibody, human IgG1) VH: DVQLQESGPGLAKLSQSLSLTCSVTGYSITSGYYWNWIRQFPGNKLEWMGHISYDGNNNYNPSLKNRISITRDTSKNQFFLKLNSVTTEDTATYYCARENYSNYYFDYWGQGTTLTVSS VL: DIVLTQSPASLAVSLGQRATISCRASQSVSKSSYTYIHWYQQKPGQPPKLLIKYASILQSGVPARFSGSGSGTDFTLNFHPVEEEDTATYYCQHSWEIPYTFGGGTKLEIK
15%	32%	59%	0.69 nM	66900	1.76 nM	75000	0.57 nM	33100	F1-mab003 (antibody, human IgG1, V domains shown, human-murine chimeric antibody, human IgG1) VH: EVQLQQSGPELVKPGASVKMSCKASGYTFTDYVMHWVRQTPGQGLEWIGYFNPYNDGTNYNEKFKVKATLTSDKSSTTAYMELSSLTSEDSAVYYCARGVYYYGRDFDYWGQGTTLTVSS VL: DVVLTQTPLSLPVSLGDQASISCRSSQSLENSNGNSYLNWYLQKPGQSPQLLIYRVSNRFSGVLDRFSGSGSGTDFTLKISRVEAEDLGVYFCLQITHVPWTFGGGTKLEIK
6%	15%	23%	2.49 nM	49900	6.11 nM	80000	1.47 nM	24800	F3.5.1 (antibody, human IgG1, V domains shown, human-murine chimeric antibody, human IgG1) VH: QAQLQQSGPELVKPGASVKISCKASGYAFSGSWMNWVQQRPGKGLEWIGRIYPGDGDTYYNGKFKDKAILTADKSSSTAYMQLSSLTSEDSAVYFCAQLRYRYVMDYWGQGTSVTVSS VL: DIVLTQSPASLAVSLGQRATISCRASESVSIHGSHLMHWYQQKPGQPPRLLIYAASNLESGVPARFSGSGSETDFTLNIHPVEEEDAATYFCQQGIKDPYTFGGGTKLEIK
1%	1%	5%	6 nM	49100	–	281	2.59 nM	27000	F3.40.14 (antibody, human IgG1, V domains shown, human-murine chimeric antibody, human IgG1) VH: QAQLQQSGPELVKPGASVKISCKASGYAFSGSWMNWVQQRPGKGLEWIGRIYPGDGDTYYSGKFKDKAILTADTSSSTAYMQLSSLTSEDSAVYFCAQLRSRYVMDYWGQGASVTVSS VL: DIVLTQSPASLAVSLGQRATISCRASESVSIHGTHLMHWYQQKPGQPPRLLIYAASNLESGVPARFSGSGSETDFTLNIHPVEEEDAATYFCQQGIDDPYTFGGGTKLEIK
1%	2%	9%	0.61 nM	63700	3.99 nM	98400	0.43 nM	35800	F3.64.4 (antibody, human IgG1, V domains shown, human-murine chimeric antibody, human IgG1) VH: EVQLQQSGPELVKPGASVKISCKASGYTFTDYHINWVKQSHGKSPEWIGDINPNNGGTTYNQKFKDKATLTVDKSSSTAFMELRSLTSEDSAVYYCARFITTVVAWYFDVWGTGTTVTVSS VL: DIQMTQSPASLSVSVGETVTITCRASENIYSNLAWYQQKQGKSPQLLVYAATNLADGVPSRFSGSGSGTQYSLKINSLQSEDFGNYYCQRFWDTPRTFGGGTKLEIK
1%	3%	8%	2.46 nM	43900	2.64 nM	66400	5.24 nM	27100	F3.13.2 (antibody, human IgG1, V domains shown, human-murine chimeric antibody, human IgG1) VH: DVQLQESGPGLMKPSQSLSLTCSVTGYSITSGYYWNWIRQFPGNKLEWMGYISYDGSNNYNPSLKNRFSITRDTSKNQFFLKLNSVTTEDTATYYCARRKLTGGPYFDYWGQGTTLTVSS VL: DIVLTQSPASLAVTLGQRATISCRASESVSFHGFHIMHWYQQKPGQPPKLLIYAASHLVSGVPDRFSGSGSETDFTLNIHPVEEEDAAAYFCQQSVEDPWTFGGGTKLEIK
2%	6%	22%	0.71 nM	60400	16.7 nM	28700	0.53 nM	29200	F2.15.26 (antibody, human IgG1, V domains shown, human-murine chimeric antibody, human IgG1) VH: QVQLKESGPGLVAPSQSLSITCTVSGFSLTDYGVSWIRQSPGKGLEWLGVIWGSGDTYYNSVLESRLSINKDNSKNQVFLKMNSLQTDDAAMYFCAKHSYYGGSFAMDYWGQGTSVTVSS VL: DIQMTQTTSSLSASLGDRVTISCRASQDISNYLNWYQQKPDGTVKLLIYYTSRLHSGVPSRFSGSGSGTDYSLTISNLEQEDIATYFCQQGKTLPWTFGGGTKLEIK
